This is an account of results in patent publication US20250073239A1, “COMBINATION OF AN IMMUNOCYTOKINE COMPRISING IL-12 AND A KINASE INHIBITOR” (PHILOGEN S.P.A., priority 2022, published 2025).

Some results are limits rather than exact numbers.

For series [1] the following is noted: rodents, cited from earlier work.
The conditions of series [2]: humans, patients with cancer; cited from earlier work.
The nature of series [3]: Toxicity monitored by daily body weighing of MC-38 tumor-bearing mice. Conditions: for weight loss: alone or with Ruxolitinib 75 mg/kg s.c., day 8, 11, 14.
Experimental: When tumors reached an average of about 50-100 mm^3, MC-38 tumor-bearing mice were randomized, and different treatments were started. Eight different groups (4/5 mice per group) received the following treatments: • (i) i.v. vehicle on day 8, 11 and 14 after tumor implantation • (ii) s.c. Ruxolitinib (75 mg/kg) on day 8, 11 and 14 after tumor implantation • (iii) i.v. L19-IL12 (0.6 mg/kg) on day 8, 11 and 14 after tumor implantation • (iv) i.v. L19-IL12 (0.9 mg/kg) on day 8, 11 and 14 after tumor implantation • (v) i.v. L19-IL12 (1.2 mg/kg) on day 8, 11 and 14 after tumor implantation • (vi) s.c Ruxolitinib (75 mg/kg) and i.v. L19-IL12 (0.6 mg/kg) on day 8, 11 and 14 after tumor implantation • (vii) s.c. Ruxolitinib (75 mg/kg) and i.v. L19-IL12 (0.9 mg/kg) on day 8, 11 and 14 after tumor implantation • (viii) s.c. Ruxolitinib (75 mg/kg) and i.v. L19-IL12 (1.2 mg/kg) on day 8, 11 and 14 after tumor implantation
Ruxolitinib was always administered 10 minutes prior the subsequent administration of L19-IL12 at the three different dose levels.
Toxicity of the different treatments was monitored by daily body weighing and general appearance of the animals.
Series [4] has as its system MC-38 cells, derived from C57BL/6 murine colon adenocarcinoma cells. The experiment in a line: Therapy experiments: tumour volume in MC-38 tumor-bearing mice. The following applies: on day 8, 11 and 14. Type of series: in vivo, C57BL/6 mice. As to the method: MC-38 cells, derived from C57BL/6 murine colon adenocarcinoma cells were cultured in DMEM medium supplemented with Fetal Bovine Serum (10%) and antibiotic-antimycotic (1%) following the supplier's protocol and kept in culture for no longer than 10 passages with a confluence lower than 90%. Eight-week-old female C57BL/6 mice were used for the experiment.
MC-38 cells were grown to 80% confluence and detached with Trypsin-EDTA 0.05%. Cells were washed, counted and re-suspended in HBSS to a final concentration of 1×10^7 cells ml^−1. Aliquots of 1×10^6 cells (100 μl of the suspension) were injected subcutaneously in the right flank of each animal. Tumor volume was determined with the following formula: (length×width^2×0.5) measured with a caliper.
Preparation of the tumor cells and tumor implantation have been done as described above in chapters 2.1 and 2.2.

In the case of `N#CC[C@H](C1CCCC1)n1cc(-c2ncnc3[nH]ccc23)cn1` [Ruxolitinib], the blood half-life entry in series [1] (after injection) is listed as “less than 1 hour”. Besides, the “time to complete wash-out from blood” value in series [1] was at most 24 h.
As for “recombinant human IL-12: recombinant human interleukin-12 cytokine tested in clinical trials in patients with cancer”, the maximal tolerated dose in series [2] was 0.5 μg/kg of body weight.

B1: L19-IL12: fusion protein of the anti-EDB L19 antibody in single chain diabody format fused to single-chain murine IL-12 (SEQ ID NO 19) (protein)
chain: MWELEKDVYVVEVDWTPDAPGETVNLTCDTPEEDDITWTSDQRHGVIGSGKTLTITVKEFLDAGQYTCHKGGETLSHSHLLLHKKENGIWSTEILKNFKNKTFLKCEAPNYSGRFTCSWLVQRNMDLKFNIKSSSSSPDSRAVTCGMASLSAEKVTLDQRDYEKYSVSCQEDVTCPTAEETLPIELALEARQQNKYENYSTSFFIRDIIKPDPPKNLQMRPLKNSQVEVSWEYPDSWSTPHSYFSLKFFVRIQRKKEKMKETEEGCNQKGAFLVERTSTEVQCKGGNVCVQAQDRYYNSSCSKWACVPCRVRSGGGGSGGGGSGGGGSRVIPVSGPARCLSQSRNLLKTTDDMVKTAREKLKHYSCTAEDIDHEDITRDQTSTLKTCLPLELHKNESCLATRETSSTTRGSCLPPQKTSLMMTLCLGSIYEDLKMYQTEFQAINAALQNHNHQQIILDKGMLVAIDELMQSLNHNGETLRQKPPVGEADPYRVKMKLCILLHAFSTRVVTINRVMGYLSSAGSADGEVQLLESGGGLVQPGGSLRLSCAASGFTFSSFSMSWVRQAPGKGLEWVSSISGSSGTTYYADSVKGRFTISRDNSKNTLYLQMNSLRAEDTAVYYCAKPFPYFDYWGQGTLVTVSSGSSGGEIVLTQSPGTLSLSPGERATLSCRASQSVSSSFLAWYQQKPGQAPRLLIYYASSRATGIPDRFSGSGSGTDFTLTISRLEPEDFAVYYCQQTGRIPPTFGQGTKVEIKSSSSGSSSSGSSSSGEVQLLESGGGLVQPGGSLRLSCAASGFTFSSFSMSWVRQAPGKGLEWVSSISGSSGTTYYADSVKGRFTISRDNSKNTLYLQMNSLRAEDTAVYYCAKPFPYFDYWGQGTLVTVSSGSSGGEIVLTQSPGTLSLSPGERATLSCRASQSVSSSFLAWYQQKPGQAPRLLIYYASSRATGIPDRFSGSGSGTDFTLTISRLEPEDFAVYYCQQTGRIPPTFGQGTKVEIK
modifications: immunocytokine sequence
Consider B1, for which the weight loss result in series [3] (L19-IL12 0.6 mg/kg i.v.) was “caused a weight loss”; in series [3] (L19-IL12 0.9 mg/kg i.v.) it was “more severe toxicity”; in series [3] (L19-IL12 […] i.v.) it was “more severe toxicity”; in series [3] (high dose L19-IL12 2.4 or 3 mg/kg i.v.), above 15%. For the same molecule, the “outcome of the weight loss for the animals” value in series [3] (high dose L19-IL12 2.4 or 3 mg/kg monotherapy) was “sacrifice of the mice for ethical reasons”. The “tumor growth (antitumor activity)” value in series [4] (L19-IL12 0.6, 0.9 or […] i.v., alone or with Ruxolitinib 75 mg/kg s.c. 10 min before) is “effectively prevented tumor growth”; in series [4] (high dose L19-IL12 2.4 or 3 mg/kg i.v., alone or with Ruxolitinib 75 mg/kg s.c.), “effectively prevented tumor growth”.
